In patent publication US20260265385A1 (ANAPTYSBIO, published 2026):

T1: recombinant cynomolgus IL-2Rβ (extracellular domain, Ala1-Thr215) (cynomolgus, UniProt Q38J85 27-240)
T1 construct: extracellular domain; Analyte in SPR; also called cynomolgus LL-2Rβ; Cyno IL-2RB
T1 sequence (looked up): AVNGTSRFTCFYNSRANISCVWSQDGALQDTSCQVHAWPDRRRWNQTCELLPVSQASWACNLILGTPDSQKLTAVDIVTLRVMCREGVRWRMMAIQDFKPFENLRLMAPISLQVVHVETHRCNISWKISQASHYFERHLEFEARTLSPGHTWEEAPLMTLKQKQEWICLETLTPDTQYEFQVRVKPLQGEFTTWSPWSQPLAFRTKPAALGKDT

T2: recombinant human IL-2Rβ (extracellular domain, Ala1-Thr215) (human, UniProt P14784 27-240)
T2 construct: extracellular domain; Analyte in SPR; Ala1-Thr215 is counted on the mature protein; also called human LL-2Rβ; Human IL-2RB
T2 sequence (looked up): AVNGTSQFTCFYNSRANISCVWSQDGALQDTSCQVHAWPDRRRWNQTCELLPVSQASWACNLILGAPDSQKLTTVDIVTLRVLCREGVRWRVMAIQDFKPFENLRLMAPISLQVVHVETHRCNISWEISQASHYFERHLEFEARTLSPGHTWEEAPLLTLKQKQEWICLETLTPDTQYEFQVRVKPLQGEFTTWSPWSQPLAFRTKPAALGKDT


What was measured:
[1] = molecular target: T1, recombinant cynomolgus IL-2Rβ …; assay: SPR, antibody captured on Protein A chip
Method: (§1) Surface plasmon resonance (SPR) was used to determine the binding affinities. The M6-1625 and M10-1275 antibodies were captured onto a Cytiva Protein A Chip for 60 seconds at 0.5 μg/mL for 60 seconds. The antibodies were exposed to recombinant human LL-2Rβ or cynomolgus LL-2Rβ (corresponding to residues Ala1-Thr215 of the extracellular domains excluding the signal peptide) at typical concentrations ranging from 0.4 nM to 11 nM with typical 300 second associations and 1200 second dissociations using a BiacoreS200 instrument. Sensorgrams were fit globally using a 1:1 binding model in the Biacore T200 Evaluation Software to calculate on- and off-rates and KD values.

[2] = molecular target: T2, recombinant human IL-2Rβ (extracellular …); assay: SPR, antibody captured on Protein A chip
Method: as §1

Binder | Kd [1] | Kd [2]
APE15035 (antibody, V domains shown, M10-1275 series) VH: EVQLVQSGAEVKKPGATVKISCKVSGFNFKDSLMHWVQQAPGKGLEWMGWIDSESGETEYAPGFQDRVTITADTSTDTAYMELSSLRSEDTAVYYCARGGPWFLSYWGQGTTVTVSS VL: EIVMTQSPATLSVSPGERATLSCRASQIISNNLHWYQQKPGQAPRLLIIYGLQSISGIPARFSGSRSGTEFTLTISSLQSEDFAVYFCQQSNNWPWTFGQGTKLEIKR | 19.4 pM | 147 pM
APE15036 (antibody, V domains shown, M10-1275 series) VH: EVQLVQSGAEVKKPGATVKISCKVSGFNFKDSLVHWVQQAPGKGLEWMGWIDSENGETEYAPGFQDRVTITADTSTDTAYMELSSLRSEDTAVYYCARGGPWFLSYWGQGTTVTVSS VL: EIVMTQSPATLSVSPGERATLSCRASQIISNNLHWYQQKPGQAPRLLIIYGLQSISGIPARFSGSRSGTEFTLTISSLQSEDFAVYFCQQSNNWPWTFGQGTKLEIKR | 19.5 pM | 165 pM
APE15037 (antibody, V domains shown, M10-1275 series) VH: EVQLVQSGAEVKKPGATVKISCKVSGFNFKDSLLHWVQQAPGKGLEWMGWIDSENGETEYAPGFQDRVTITADTSTDTAYMELSSLRSEDTAVYYCARGGPWFLSYWGQGTTVTVSS VL: EIVMTQSPATLSVSPGERATLSCRASQIISNNLHWYQQKPGQAPRLLIIYGLQSISGIPARFSGSRSGTEFTLTISSLQSEDFAVYFCQQSNNWPWTFGQGTKLEIKR | 17.1 pM | 124 pM
APE15038 (antibody, V domains shown, M10-1275 series) VH: EVQLVQSGAEVKKPGATVKISCKVSGFNFKDSLIHWVQQAPGKGLEWMGWIDSENGETEYAPGFQDRVTITADTSTDTAYMELSSLRSEDTAVYYCARGGPWFLSYWGQGTTVTVSS VL: EIVMTQSPATLSVSPGERATLSCRASQIISNNLHWYQQKPGQAPRLLIIYGLQSISGIPARFSGSRSGTEFTLTISSLQSEDFAVYFCQQSNNWPWTFGQGTKLEIKR | 18.5 pM | 120 pM
APE15053 (antibody, V domains shown, M10-1275 series) VH: EVQLVQSGAEVKKPGATVKISCKVSGFNFKDSLMHWVQQAPGKGLEWMGWIDSENGETEYAPGFQDRVTITADTSTDTAYMELSSLRSEDTAVYYCARGGPWFLSYWGQGTTVTVSS VL: EIVMTQSPATLSVSPGERATLSCRASQIISNNLHWYQQKPGQAPRLLIIYGLQSISGIPARFSGSRSGTEFTLTISSLQSEDFAVYFCQQSNNWPYTFGQGTKLEIKR | 39.9 pM | 91.5 pM
APE15054 (antibody, V domains shown, M10-1275 series) VH: EVQLVQSGAEVKKPGATVKISCKVSGFNFKDSLMHWVQQAPGKGLEWMGWIDSENGETEYAPGFQDRVTITADTSTDTAYMELSSLRSEDTAVYYCARGGPWFLSYWGQGTTVTVSS VL: EIVMTQSPATLSVSPGERATLSCRASQIISNNLHWYQQKPGQAPRLLIIYGLQSISGIPARFSGSRSGTEFTLTISSLQSEDFAVYFCQQSNNWPFTFGQGTKLEIKR | 108 pM | 429 pM
APE15055 (antibody, V domains shown, M10-1275 series) VH: EVQLVQSGAEVKKPGATVKISCKVSGFNFKDSLMHWVQQAPGKGLEWMGWIDSENGETEYAPGFQDRVTITADTSTDTAYMELSSLRSEDTAVYYCARGGPWFLSYWGQGTTVTVSS VL: EIVMTQSPATLSVSPGERATLSCRASQIISNNLHWYQQKPGQAPRLLIIYGLQSISGIPARFSGSRSGTEFTLTISSLQSEDFAVYFCQQSNNYPWTFGQGTKLEIKR | 83.8 pM | 369 pM
APE15056 (antibody, V domains shown, M10-1275 series) VH: EVQLVQSGAEVKKPGATVKISCKVSGFNFKDSLMHWVQQAPGKGLEWMGWIDSENGETEYAPGFQDRVTITADTSTDTAYMELSSLRSEDTAVYYCARGGPWFLSYWGQGTTVTVSS VL: EIVMTQSPATLSVSPGERATLSCRASQIISNNLHWYQQKPGQAPRLLIIYGLQSISGIPARFSGSRSGTEFTLTISSLQSEDFAVYFCQQSNNFPWTFGQGTKLEIKR | 19.8 pM | 122 pM
APE15057 (antibody, V domains shown, M10-1275 series) VH: EVQLVQSGAEVKKPGATVKISCKVSGFNFKDSLMHWVQQAPGKGLEWMGWIDSENGETEYAPGFQDRVTITADTSTDTAYMELSSLRSEDTAVYYCARGGPWFLSYWGQGTTVTVSS VL: EIVMTQSPATLSVSPGERATLSCRASQIISNNLHWYQQKPGQAPRLLIYYGLQSISGIPARFSGSRSGTEFTLTISSLQSEDFAVYYCQQSNNWPWTFGQGTKLEIKR | 24 pM | 144 pM
APE15058 (antibody, V domains shown, M10-1275 series) VH: EVQLVQSGAEVKKPGATVKISCKVSGFNFKDSLMHWVQQAPGKGLEWMGWIDSENGETEYAPGFQDRVTITADTSTDTAYMELSSLRSEDTAVYYCARGGPWFLSYWGQGTTVTVSS VL: EIVMTQSPATLSVSPGERATLSCRASQIISNNLHWYQQKPGQAPRLLIYYGLQSISGIPARFSGSRSGTEFTLTISSLQSEDFAVYFCQQSNNWPWTFGQGTKLEIKR | 22.3 pM | 154 pM
APE15059 (antibody, V domains shown, M10-1275 series) VH: EVQLVQSGAEVKKPGATVKISCKVSGFNFKDSLMHWVQQAPGKGLEWMGWIDSENGETEYAPGFQDRVTITADTSTDTAYMELSSLRSEDTAVYYCARGGPWFLSYWGQGTTVTVSS VL: EIVMTQSPATLSVSPGERATLSCRASQIISNNLHWYQQKPGQAPRLLIIYGLQSISGIPARFSGSRSGTEFTLTISSLQSEDFAVYYCQQSNNWPWTFGQGTKLEIKR | 15.9 pM | 69.7 pM
APE15135 (antibody, V domains shown, M10-1275 series) VH: EVQLVQSGAEVKKPGATVKISCKVSGFNFKDSLMHWVQQAPGKGLEWMGWIDNENGETEYAPGFQDRVTITADTSTDTAYMELSSLRSEDTAVYYCARGGPWFLSYWGQGTTVTVSS VL: EIVMTQSPATLSVSPGERATLSCRASQIISNNLHWYQQKPGQAPRLLIIYGLQSISGIPARFSGSRSGTEFTLTISSLQSEDFAVYYCQQSNNWPWTFGQGTKLEIKR | 10.5 pM | 28.2 pM
APE15136 (antibody, V domains shown, M10-1275 series) VH: EVQLVQSGAEVKKPGATVKISCKVSGFNFKESLMHWVQQAPGKGLEWMGWIDSENGETEYAPGFQDRVTITADTSTDTAYMELSSLRSEDTAVYYCARGGPWFLSYWGQGTTVTVSS VL: EIVMTQSPATLSVSPGERATLSCRASQIISNNLHWYQQKPGQAPRLLIIYGLQSISGIPARFSGSRSGTEFTLTISSLQSEDFAVYYCQQSNNWPWTFGQGTKLEIKR | 11.4 pM | 48.1 pM
APE15137 (antibody, V domains shown, M10-1275 series) VH: EVQLVQSGAEVKKPGATVKISCKVSGFNFKYSLMHWVQQAPGKGLEWMGWIDSENGETEYAPGFQDRVTITADTSTDTAYMELSSLRSEDTAVYYCARGGPWFLSYWGQGTTVTVSS VL: EIVMTQSPATLSVSPGERATLSCRASQIISNNLHWYQQKPGQAPRLLIIYGLQSISGIPARFSGSRSGTEFTLTISSLQSEDFAVYYCQQSNNWPWTFGQGTKLEIKR | 17.4 pM | 51.8 pM
APE15138 (antibody, V domains shown, M10-1275 series) VH: EVQLVQSGAEVKKPGATVKISCKVSGFNFKLSLMHWVQQAPGKGLEWMGWIDSENGETEYAPGFQDRVTITADTSTDTAYMELSSLRSEDTAVYYCARGGPWFLSYWGQGTTVTVSS VL: EIVMTQSPATLSVSPGERATLSCRASQIISNNLHWYQQKPGQAPRLLIIYGLQSISGIPARFSGSRSGTEFTLTISSLQSEDFAVYYCQQSNNWPWTFGQGTKLEIKR | 16.3 pM | 43.6 pM
APE15139 (antibody, V domains shown, M10-1275 series) VH: EVQLVQSGAEVKKPGATVKISCKVSGFNFKESLIHWVQQAPGKGLEWMGWIDVEAGETEYAPGFQDRVTITADTSTDTAYMELSSLRSEDTAVYYCARGGPWFLSYWGQGTTVTVSS VL: EIVMTQSPATLSVSPGERATLSCRASQIISNNLHWYQQKPGQAPRLLIIYGLQSISGIPARFSGSRSGTEFTLTISSLQSEDFAVYYCQQSNNWPWTFGQGTKLEIKR | 9.23 pM | 35.2 pM
APE15141 (antibody, V domains shown, M10-1275 series) VH: EVQLVQSGAEVKKPGATVKISCKVSGFNFKESLMHWVQQAPGKGLEWMGWIDNEAGETEYAPGFQDRVTITADTSTDTAYMELSSLRSEDTAVYYCARGGPWFLSYWGQGTTVTVSS VL: EIVMTQSPATLSVSPGERATLSCRASQIISNNLHWYQQKPGQAPRLLIIYGLQSISGIPARFSGSRSGTEFTLTISSLQSEDFAVYYCQQSNNWPWTFGQGTKLEIKR | 10.3 pM | 22 pM
APE15143 (antibody, V domains shown, M10-1275 series) VH: EVQLVQSGAEVKKPGATVKISCKVSGFNFKYSLMHWVQQAPGKGLEWMGWIDNEAGETEYAPGFQDRVTITADTSTDTAYMELSSLRSEDTAVYYCARGGPWFLSYWGQGTTVTVSS VL: EIVMTQSPATLSVSPGERATLSCRASQIISNNLHWYQQKPGQAPRLLIIYGLQSISGIPARFSGSRSGTEFTLTISSLQSEDFAVYYCQQSNNWPWTFGQGTKLEIKR | 9.72 pM | 25.1 pM
